Assay results: paper PMC5440653, “SorLA in Interleukin-6 Signaling and Turnover” (Molecular and Cellular Biology, 2017)

How the values were obtained:
[1] = target: SorLA Vps10p domain (human); test: SPR; Biacore 3000, CM5 chip; purified soluble receptor immobilized (66 to 86 fmol/mm^2), ligand injected at 5 ul/min, 25°C, 10 mM HEPES, 150 mM NaCl, 1.5 mM CaCl2, 1 mM EGTA, 0.005% Tween 20, pH 7.4; Langmuir 1:1 model, global fitting
[2] = target: T1, preformed sSorLA:IL-6 complex (human, UniProt Q92673 82-2137; P05231 30-212); test: SPR; immobilized sSorLA first exposed to IL-6 (100 nM), then fresh buffer with 100 nM sIL-6R injected; n = 3; conditions: both partners purified
T1 construct: SorLA, human, luminal (extracellular) part, as m3; interleukin-6, human, recombinant, as m1; source: formed on the sensor chip: immobilized sSorLA exposed to IL-6 (100 nM)
T1 sequence (Q92673 82-2137, chain 1 of 2): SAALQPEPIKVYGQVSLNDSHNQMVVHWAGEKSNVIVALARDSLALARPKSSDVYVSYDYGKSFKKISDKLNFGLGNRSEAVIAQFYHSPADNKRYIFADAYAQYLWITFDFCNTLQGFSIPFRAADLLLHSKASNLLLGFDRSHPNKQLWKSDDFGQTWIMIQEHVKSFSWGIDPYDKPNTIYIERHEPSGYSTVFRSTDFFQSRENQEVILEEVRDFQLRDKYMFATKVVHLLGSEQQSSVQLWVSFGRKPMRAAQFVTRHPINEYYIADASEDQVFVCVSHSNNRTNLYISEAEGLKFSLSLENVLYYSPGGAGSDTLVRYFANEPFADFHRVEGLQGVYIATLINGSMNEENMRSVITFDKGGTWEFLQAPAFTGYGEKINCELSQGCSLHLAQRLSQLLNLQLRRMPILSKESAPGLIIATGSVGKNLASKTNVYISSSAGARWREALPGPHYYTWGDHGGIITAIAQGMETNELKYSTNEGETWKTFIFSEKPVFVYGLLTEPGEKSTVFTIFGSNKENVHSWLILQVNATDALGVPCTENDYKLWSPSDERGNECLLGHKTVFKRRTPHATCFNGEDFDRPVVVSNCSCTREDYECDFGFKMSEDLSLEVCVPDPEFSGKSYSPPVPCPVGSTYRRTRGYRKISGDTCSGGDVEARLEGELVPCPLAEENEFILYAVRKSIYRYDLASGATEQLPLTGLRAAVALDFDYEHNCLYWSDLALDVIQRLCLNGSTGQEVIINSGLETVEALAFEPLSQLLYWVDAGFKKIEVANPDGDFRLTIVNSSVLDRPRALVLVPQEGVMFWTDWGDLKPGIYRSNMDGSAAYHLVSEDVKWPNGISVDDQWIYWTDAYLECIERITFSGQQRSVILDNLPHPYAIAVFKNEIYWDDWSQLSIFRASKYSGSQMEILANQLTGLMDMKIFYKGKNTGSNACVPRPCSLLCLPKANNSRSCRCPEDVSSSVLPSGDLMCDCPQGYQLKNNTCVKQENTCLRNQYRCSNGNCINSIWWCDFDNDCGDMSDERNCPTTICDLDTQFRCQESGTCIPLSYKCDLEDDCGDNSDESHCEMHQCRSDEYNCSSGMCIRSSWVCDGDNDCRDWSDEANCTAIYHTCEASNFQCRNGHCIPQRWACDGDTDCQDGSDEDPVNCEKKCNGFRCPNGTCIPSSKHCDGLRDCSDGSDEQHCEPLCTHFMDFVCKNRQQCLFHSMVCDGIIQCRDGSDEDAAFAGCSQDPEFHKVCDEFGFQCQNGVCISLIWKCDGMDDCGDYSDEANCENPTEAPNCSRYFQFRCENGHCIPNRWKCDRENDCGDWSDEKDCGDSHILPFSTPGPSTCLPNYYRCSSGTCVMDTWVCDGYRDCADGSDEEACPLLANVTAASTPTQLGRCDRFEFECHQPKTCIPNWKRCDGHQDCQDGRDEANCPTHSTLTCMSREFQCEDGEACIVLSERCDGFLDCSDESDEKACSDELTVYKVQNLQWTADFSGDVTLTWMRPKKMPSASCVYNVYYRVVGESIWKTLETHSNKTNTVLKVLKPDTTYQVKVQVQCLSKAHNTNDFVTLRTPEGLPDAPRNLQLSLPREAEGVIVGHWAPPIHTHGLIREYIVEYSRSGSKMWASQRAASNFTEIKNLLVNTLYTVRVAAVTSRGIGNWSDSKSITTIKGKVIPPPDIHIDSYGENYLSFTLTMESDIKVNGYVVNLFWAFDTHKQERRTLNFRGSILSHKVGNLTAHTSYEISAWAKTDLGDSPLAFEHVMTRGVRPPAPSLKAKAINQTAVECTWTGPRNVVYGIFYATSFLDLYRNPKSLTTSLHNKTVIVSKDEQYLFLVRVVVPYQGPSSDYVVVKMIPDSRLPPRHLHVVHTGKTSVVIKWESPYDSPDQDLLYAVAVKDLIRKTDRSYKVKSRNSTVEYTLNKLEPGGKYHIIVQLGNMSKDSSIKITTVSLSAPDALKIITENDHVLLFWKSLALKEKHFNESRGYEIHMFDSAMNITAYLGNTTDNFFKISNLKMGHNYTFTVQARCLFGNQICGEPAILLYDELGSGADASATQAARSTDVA
T1 sequence (P05231 30-212, chain 2 of 2): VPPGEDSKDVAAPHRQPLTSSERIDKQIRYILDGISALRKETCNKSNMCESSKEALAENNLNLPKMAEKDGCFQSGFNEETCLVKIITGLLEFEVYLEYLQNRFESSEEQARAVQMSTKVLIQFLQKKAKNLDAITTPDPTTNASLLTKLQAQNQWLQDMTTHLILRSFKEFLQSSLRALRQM

[3] = target: T2, soluble SorLA (SorLA ectodomain, luminal part) (human, UniProt Q92673 82-2137); test: SPR; Biacore 3000, CM5 chip; purified soluble receptor immobilized (66 to 86 fmol/mm^2), ligand injected at 5 ul/min, 25°C, 10 mM HEPES, 150 mM NaCl, 1.5 mM CaCl2, 1 mM EGTA, 0.005% Tween 20, pH 7.4; Langmuir 1:1 model, global fitting; conditions: both partners purified
T2 construct: SorLA, human, luminal (extracellular) part; The introduction says that the propeptide is cut off in late Golgi compartments; also called sSorLA; the entire extracellular part of SorLA
T2 sequence (Q92673 82-2137): as the sequence (Q92673 82-2137, chain 1 of 2) above

Interleukin-6 (from UniProt P05231 30-212) (ligand)
Kd [1]: 12 nM

soluble IL-6 receptor (IL-6R ectodomain) (from UniProt P08887 20-365)
Kd [1]: 9 nM

B1: soluble IL-6 receptor (IL-6R ectodomain) (receptor, human, UniProt P08887 20-365, looked up)
chain: LAPRRCPAQEVARGVLTSLPGDSVTLTCPGVEPEDNATVHWVLRKPAAGSHPSRWAGMGRRLLLRSVQLHDSGNYSCYRAGRPAGTVHLLVDVPPEEPQLSCFRKSPLSNVVCEWGPRSTPSLTTKAVLLVRKFQNSPAEDFQEPCQYSQESQKFSCQLAVPEGDSSFYIVSMCVASSVGSKFSKTQTFQGCGILQPDPPANITVTAVARNPRWLSVTWQDPHSWNSSFYRLRFELRYRAERSKTFTTWMVKDLQHHCVIHDAWSGLRHVVQLRAQEEFGQGEWSEWSPEAMGTPWTESRSPPAENEVSTPMQALTTNKDDDNILFRDSANATSLPVQDSSSVPLP
notes: interleukin-6 receptor (alpha chain), human, soluble form consisting only of the ectodomain; also called sIL-6R; recombinant human sIL-6R; source: bought: R&D Systems
Kd [2]: 8 nM
Kd [3]: ~34 nM
